Data on 1 molecule can be found in doi:10.1101/869909.

The test concerns the target HSP27 ACD domain (α-crystallin domain), monomeric (human). Description: ITC. A general note: Isothermal titration calorimetry measures the heat released or taken up as one component is titrated into another.

Chain of HSP27 ACD domain (α-crystallin domain), monomeric (human) (P04792 76-184): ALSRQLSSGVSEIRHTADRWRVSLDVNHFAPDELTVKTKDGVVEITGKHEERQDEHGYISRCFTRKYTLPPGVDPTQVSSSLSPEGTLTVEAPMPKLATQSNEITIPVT

Regarding EITIPVTHE [HSP27 IXI peptide 178-…-186 (F185H), without biotin], the Kd (in general, the free concentration of one partner at which half of the binding sites on the other are occupied at equilibrium, for simple one-to-one binding) amounted to 14.3 µM.
